Laboratory results taken from publication PMC549075, “HIV-1 Tat protein enhances Microtubule polymerization” (Retrovirology, 2005).

What was measured:
Lamb brain tubulin [1] = molecular target: Lamb brain tubulin (lamb); test: cell-based or functional assay
Lamb brain tubulin [2] = molecular target: Lamb brain tubulin (lamb); test: cell-based or functional assay; remark: listed apart in the source

B1: HIV-1 Tat protein, HxB2 strain (natural protein)
chain: MEPVDPRLEPWKHPGSQPKTACTNCYCKKCCFHCQVCFITKALGISYGRKKRRQRRRAHQNSQTHQASLSKQPTSQPRGDPTGPKE
Lamb brain tubulin [1]
  fold increase of the turbidity plateau over tubulin alone, 4 μM and 8 μM Tat with 15 μM tubulin: 3.7 fold
Lamb brain tubulin [2]
  ΔOD ratio (plateau with 8 μM compound divided by plateau of tubulin alone): 3.31
